Assay results as given in article PMC7251212.

Molecular target: recombinant TdfH (Neisseria gonorrhoeae TonB-dependent transporter, NGO0952) (Neisseria gonorrhoeae)
Test: ITC; Nano ITC, 25°C, 1x PBS with 0.05% DDM; TdfH (300 μl, 20 μM) in the cell, CP sample (200 μM) in 20 injections of 2.5 μl; fitted with NanoAnalyze to a two-state (multisite) model, TKO to a single-site model

B1: human calprotectin (heterodimer of S100A8 and S100A9) (complex)
chain 1: MLTELEKALNSIIDVYHKYSLIKGNFHAVYRDDLKKLLETECPQYIRKKGADVWFKELDINTDGAVNFQEFLILVIKMGVAAHKKSHEESHKE
chain 2: KMSQLERNIETIINTFHQYSVKLGHPDTLNQGEFKELVRKDLQNFLKKENKNEKVIEHIMEDLDTNADKQLSFEEFIMLMARLTWASHEKMHEGDEGPGHHHKPGLGEGTP
With B1 the KD, high-affinity interaction (two-state model) was 0.004 µM and the KD, low-affinity interaction (two-state model) was 35 µM.
